# Measured values from paper PMC2682205, “Cdc7p-Dbf4p Regulates Mitotic Exit by Inhibiting Polo Kinase” (PLoS Genetics, 2009).
# T1: GST-PoloPBD (Polo amino acids 357–705) (budding yeast (S. cerevisiae), UniProt P32562 357-705)
# T1 construct: Cdc5p (Polo), budding yeast; amino acids 357-705 with the polo-box domain; Cloned into pGEX-KG; also called GST-PBD; source: E. coli BL21, purified (glutathione-agarose, dialysis)
# T1 sequence (looked up): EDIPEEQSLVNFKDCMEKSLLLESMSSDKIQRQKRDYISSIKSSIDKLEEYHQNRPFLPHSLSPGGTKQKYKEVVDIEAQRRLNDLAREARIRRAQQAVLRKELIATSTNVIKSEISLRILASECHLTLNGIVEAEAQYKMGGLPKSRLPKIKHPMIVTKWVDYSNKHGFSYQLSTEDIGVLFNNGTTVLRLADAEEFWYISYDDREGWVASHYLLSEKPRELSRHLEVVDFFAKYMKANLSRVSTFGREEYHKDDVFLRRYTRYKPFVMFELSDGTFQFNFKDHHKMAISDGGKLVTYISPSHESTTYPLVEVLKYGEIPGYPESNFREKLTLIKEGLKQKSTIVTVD
# Target: T1, GST-PoloPBD (Polo amino acids 357–705)
# Assay: pull-down; GST or GST-PBD with Sumo or Sumo-Dbf4p on glutathione-agarose, 20 mM Tris-HCl pH 7.0, 300 mM NaCl, 0.5% NP-40, 1 mM EGTA, 1 hour at 4°C; blots with anti-GST-Polo PBD and anti-Smt3p
# Settings: both partners purified
binder,measurement,value
"QQQQHLHEKKRARIERARSIEGAVQVSKGTGLKNVEPRVTPKEL (domain or fragment, budding yeast (S. cerevisiae), UniProt P32325 66-109, looked up, Dbf4p, budding yeast; Cloned into pSUMO (LifeSensors Inc.); also called Dbf4p PIR; source: E. coli BL21, purified (Ni++ column, imidazole gradient)) [Sumo-Dbf4p_(67–109)]",binding result,binds
